According to PMC8831599, “Defining molecular glues with a dual-nanobody cannabidiol sensor” (Nature Communications, 2022):

Key:
[1] = target: Biotin-DB21 (biotinylated Avi-DB21); assay: BLI; biotinylated DB21 on streptavidin probe, tag-free CA14 as analyte, no CBD; 30 °C; 25 mM HEPES pH 7.4, 100 mM NaCl, no TCEP, 0.1% Tween-20, 0.05 mg/mL BSA; kinetic and steady-state analysis differ
[2] = target: Biotin-DB21 (biotinylated Avi-DB21); assay: AlphaScreen or HTRF; competition without CBD: 200 nM His-CA14 on acceptor beads, 67 nM biotinylated DB21 (wild type or mutant) on streptavidin donor beads, label-free protein titrated; 25 mM HEPES pH 7.4, 100 mM NaCl, no TCEP, 0.1% Tween-20, 0.05 mg/mL BSA

Kd [1]: 19 µM | Kd determined by kinetics [1]: 3 µM | IC50 [2]: 20 µM
B1: CA14 anchor binder nanobody, tag-free (VHH)
VHH: EVQLQASGGGFVQPGGSLRLSCAASGSTSRQYDMGWFRQAPGKEREFVSAISSNQDQPPYYADSVKGRFTISRDNSKNTVYLQMNSLRAEDTATYYCAFKQHHANGAYWGQGTQVTVSS
